Legend:
Conditions in all cases: tags: His6, single strand
eIF4A1 wt = eIF4A1 wt (UniProt P60842 1-406); assay: fluorescence polarization; no Hipp; FP: 1 uM recombinant protein, FAM-poly r(AG)8, vehicle (0.1% DMSO) or Hipp, 30 min; buffer, salt, pH and temperature not given in the material
eIF4A1 G361C = eIF4A1 G361C (UniProt P60842 1-406, G361C); assay: fluorescence polarization; no Hipp; similar to wt; FP: 1 uM recombinant protein, FAM-poly r(AG)8, vehicle (0.1% DMSO) or Hipp, 30 min; buffer, salt, pH and temperature not given in the material
eIF4A1 G361C, sequence (P60842 whole entry G361C): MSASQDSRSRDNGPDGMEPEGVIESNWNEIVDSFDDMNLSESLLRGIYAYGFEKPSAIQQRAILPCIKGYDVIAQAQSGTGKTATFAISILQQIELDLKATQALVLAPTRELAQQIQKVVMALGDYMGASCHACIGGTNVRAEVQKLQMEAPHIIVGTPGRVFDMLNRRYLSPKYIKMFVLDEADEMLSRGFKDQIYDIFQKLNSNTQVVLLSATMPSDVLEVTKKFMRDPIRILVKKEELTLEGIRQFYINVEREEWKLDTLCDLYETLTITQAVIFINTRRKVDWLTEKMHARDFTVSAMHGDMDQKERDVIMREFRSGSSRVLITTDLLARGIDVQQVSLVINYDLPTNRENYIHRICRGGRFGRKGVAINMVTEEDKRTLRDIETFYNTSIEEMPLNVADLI

eIF4A1 G370S = eIF4A1 G370S (UniProt P60842 1-406, G370S); assay: as above
eIF4A1 G370S, sequence (P60842 whole entry G370S): as the sequence (P60842 whole entry G361C) above, with C361G, G370S counted along it

Measured: binding result

eIF4A1 wt, sequence (P60842 whole entry): as the sequence (P60842 whole entry G361C) above, with C361G counted along it

AGAGAGAGAGAGAGAG (ssRNA) [poly r(AG)8]
binds: all assays above
